The source of these data is patent US20050266509.

For data set [1], the target named is NR2B, full length clone (NMDA receptor subunit), Q13224.
Data set [2] concerns the target constitutive active Src kinase.

Chain of NR2B, full length clone (NMDA receptor subunit), Q13224 (Q13224 27-1484): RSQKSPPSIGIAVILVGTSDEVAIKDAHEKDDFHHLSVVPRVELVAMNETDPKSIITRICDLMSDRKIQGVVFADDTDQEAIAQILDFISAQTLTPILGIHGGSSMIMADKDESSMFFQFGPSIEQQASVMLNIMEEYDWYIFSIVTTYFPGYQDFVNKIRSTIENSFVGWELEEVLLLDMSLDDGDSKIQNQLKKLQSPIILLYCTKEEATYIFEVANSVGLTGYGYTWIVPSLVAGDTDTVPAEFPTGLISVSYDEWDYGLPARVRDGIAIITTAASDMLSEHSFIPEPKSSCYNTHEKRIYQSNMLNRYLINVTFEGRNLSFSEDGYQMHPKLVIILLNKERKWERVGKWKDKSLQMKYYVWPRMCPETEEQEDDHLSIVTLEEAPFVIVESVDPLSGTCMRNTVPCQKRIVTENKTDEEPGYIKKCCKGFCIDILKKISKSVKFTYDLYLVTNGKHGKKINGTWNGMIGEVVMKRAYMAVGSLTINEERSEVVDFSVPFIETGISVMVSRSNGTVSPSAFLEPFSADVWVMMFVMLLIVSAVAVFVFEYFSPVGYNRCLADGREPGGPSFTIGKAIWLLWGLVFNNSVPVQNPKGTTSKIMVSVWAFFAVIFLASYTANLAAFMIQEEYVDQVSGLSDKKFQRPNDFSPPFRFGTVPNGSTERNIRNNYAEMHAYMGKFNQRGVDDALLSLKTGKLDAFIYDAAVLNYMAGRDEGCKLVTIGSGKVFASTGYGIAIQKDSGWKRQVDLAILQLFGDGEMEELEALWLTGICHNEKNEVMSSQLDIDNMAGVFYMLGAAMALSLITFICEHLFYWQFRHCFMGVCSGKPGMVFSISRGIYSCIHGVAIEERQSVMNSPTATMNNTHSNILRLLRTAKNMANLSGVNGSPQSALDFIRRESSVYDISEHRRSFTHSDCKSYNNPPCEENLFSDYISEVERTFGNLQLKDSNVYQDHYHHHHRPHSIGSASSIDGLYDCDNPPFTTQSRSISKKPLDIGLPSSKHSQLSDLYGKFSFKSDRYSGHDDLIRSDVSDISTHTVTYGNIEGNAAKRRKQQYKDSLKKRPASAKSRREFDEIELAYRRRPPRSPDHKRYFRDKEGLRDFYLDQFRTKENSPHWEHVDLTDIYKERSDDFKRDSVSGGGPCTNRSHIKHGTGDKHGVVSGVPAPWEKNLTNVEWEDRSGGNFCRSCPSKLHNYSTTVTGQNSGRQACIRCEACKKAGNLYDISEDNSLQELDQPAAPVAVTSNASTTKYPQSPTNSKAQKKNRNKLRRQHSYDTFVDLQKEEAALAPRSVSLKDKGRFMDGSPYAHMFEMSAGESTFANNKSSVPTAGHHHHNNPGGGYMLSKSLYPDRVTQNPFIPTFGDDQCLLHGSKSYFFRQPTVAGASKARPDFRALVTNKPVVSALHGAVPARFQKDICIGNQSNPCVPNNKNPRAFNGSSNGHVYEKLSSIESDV

B1: PTPMEG, full length clone (amino-terminal myc-tag, c-terminal HA tag) (protein)
chain: MTSRFRLPAGRTYNVRASELARDRQHTEVVCNILLLDNTVQAFKVNKHDQGQVLLDVVFKHLDLTEQDYFGLQLADDSTDNPRWLDPNKPIRKQLKRGSPYSLNFRVKFFVSDPNKLQEEYTRYQYFLQIKQDILTGRLPCPSNTAALLASFAVQSELGDYDQSENLSGYLSDYSFIPNQPQDFEKEIAKLHQQHIGLSPAEAEFNYLNTARTLELYGVEFHYARDQSNNEIMIGVMSGGILIYKNRVRMNTFPWLKIVKISFKCKQFFIQLRKELHESRETLLGFNMVNYRACKNLWKACVEHHTFFRLDRPLPPQKNFFAHYFTLGSKFRYCGRTEVQSVQYGKEKANKDRVFARSPSKPLARKLMDWEVVSRNSISDDRLETQSLPSRSPPGTPNHRNSTFTQEGTRLRPSSVGHLVDHMVHTSPSEVFVNQRSPSSTQANSIVLESSPSQETPGDGKPPALPPKQSKKNSWNQIHYSHSQQDLESHINETFDIPSSPEKPTPNGGIPHDNLVLIRMKPDENGRFGFNVKGGYDQKMPVIVSRVAPGTPADLCVPRLNEGDQVVLINGRDIAEHTHDQVVLFIKASCERHSGELMLLVRPNAVYDVVEEKLENEPDFQYIPEKAPLDSVHQDDHSLRESMIQLAEGLITGTVLTQFDQLYRKKPGMTMSCAKLPQNISKNRYRDISPYDATRVILKGNEDYINANYINMEIPSSSIINQYIACQGPLPHTCTDFWQMTWEQGSSMVVMLTTQVERGRVKCHQYWPEPTGSSSYGCYQVTCHSEEGNTAYIFRKMTLFNQEKNESRPLTQIQYIAWPDHGVPDDSSDFLDFVCHVRNKRAGKEEPVVVHCSAGIGRTGVLITMETAMCLIECNQPVYPLDIVRTMRDQRAMMIQTPSQYRFVCEAILKVYEEGFVKPLTTSTNK
For B1, the “NR2B tyrosine phosphorylation, western blot with an NR2B phosphospecific antibody” value in data set [1] is “In presence of the active wildtype PTPMEG phosphatase, both the NR2B subunit as well as Src kinase were dephosphorylated”. For the same protein, in data set [2], the “Src phosphorylation at position 418, western blot with anti PY418 antibody” value was “In presence of the active wildtype PTPMEG phosphatase, both the NR2B subunit as well as Src kinase were dephosphorylated”; the “phosphorylation at Y418, western blot with a Src/fyn specific phosphoantibody” value was “In presence of PTPMEG (identified with a c-myc antibody from Upstate) there is a dephosphorylation of Src and fyn at position Y418”.

B2: PTPMEG-CS (inactive PTPase), full length clone (amino-terminal myc-tag, c-terminal HA tag) (protein)
chain: MTSRFRLPAGRTYNVRASELARDRQHTEVVCNILLLDNTVQAFKVNKHDQGQVLLDVVFKHLDLTEQDYFGLQLADDSTDNPRWLDPNKPIRKQLKRGSPYSLNFRVKFFVSDPNKLQEEYTRYQYFLQIKQDILTGRLPCPSNTAALLASFAVQSELGDYDQSENLSGYLSDYSFIPNQPQDFEKEIAKLHQQHIGLSPAEAEFNYLNTARTLELYGVEFHYARDQSNNEIMIGVMSGGILIYKNRVRMNTFPWLKIVKISFKCKQFFIQLRKELHESRETLLGFNMVNYRACKNLWKACVEHHTFFRLDRPLPPQKNFFAHYFTLGSKFRYCGRTEVQSVQYGKEKANKDRVFARSPSKPLARKLMDWEVVSRNSISDDRLETQSLPSRSPPGTPNHRNSTFTQEGTRLRPSSVGHLVDHMVHTSPSEVFVNQRSPSSTQANSIVLESSPSQETPGDGKPPALPPKQSKKNSWNQIHYSHSQQDLESHINETFDIPSSPEKPTPNGGIPHDNLVLIRMKPDENGRFGFNVKGGYDQKMPVIVSRVAPGTPADLCVPRLNEGDQVVLINGRDIAEHTHDQVVLFIKASCERHSGELMLLVRPNAVYDVVEEKLENEPDFQYIPEKAPLDSVHQDDHSLRESMIQLAEGLITGTVLTQFDQLYRKKPGMTMSCAKLPQNISKNRYRDISPYDATRVILKGNEDYINANYINMEIPSSSIINQYIACQGPLPHTCTDFWQMTWEQGSSMVVMLTTQVERGRVKCHQYWPEPTGSSSYGCYQVTCHSEEGNTAYIFRKMTLFNQEKNESRPLTQIQYIAWPDHGVPDDSSDFLDFVCHVRNKRAGKEEPVVVHSSAGIGRTGVLITMETAMCLIECNQPVYPLDIVRTMRDQRAMMIQTPSQYRFVCEAILKVYEEGFVKPLTTSTNK
For B2, the “NR2B tyrosine phosphorylation, western blot” value in data set [1] is “Dephosphorylation of NR2B and Src kinase was reversed by addition of dephostatin, and unaffected in presence of the dominant negative form of PTPMEG (CS)”. Moreover, in data set [2], the “Src phosphorylation at position 418, western blot” value was “Dephosphorylation of NR2B and Src kinase was reversed by addition of dephostatin, and unaffected in presence of the dominant negative form of PTPMEG (CS)”.
